± gives the uncertainty stated by the source.
B1: DNA topoisomerase 3-alpha, residues 812 to 851; numbered along this chain, Q13472 (parent)
chain: TCNCGQEAVLLTVRKEGPNRGRQFFKCNGGSCNFFLWADS
B2: Spectrin alpha chain, erythrocytic 1, residues 979 to 1036; numbered along this chain, P02549 (parent)
chain: EQRVMALYDFQARSPREVTMKKGDVLTLLSSINKDWWKVEAADHQGIVPAVYVRRLAH

Variants of: B1
Test: abundance fitness (aPCA) (normalised: wild type 0, dead -1); higher = more abundant; growth selection in yeast, the domain comes from the species named
Conditions: Homo sapiens

Variant	abundance fitness
G5S	-0.377 ± 0.22
G5V	-0.714 ± 0.098
Q6A	0.229 ± 0.12
Q6G	-0.182 ± 0.12
Q6R	0.038 ± 0.22
Q6V	-0.338 ± 0.15
E7G	-0.221 ± 0.051
E7H	-0.142 ± 0.1
E7P	-0.023 ± 0.088
E7R	-0.18 ± 0.093
E7S	-0.233 ± 0.15
A8D	-0.903 ± 0.37
A8E	-0.644 ± 0.11
A8F	-1 ± 0.44
A8L	-0.238 ± 0.12
A8M	-0.172 ± 0.06
A8P	0.309 ± 0.088
A8R	-0.543 ± 0.11
A8S	-0.369 ± 0.058
A8W	-0.367 ± 0.15
V9C	-0.226 ± 0.11
V9G	-0.355 ± 0.046
V9L	0.12 ± 0.26
V9P	-0.227 ± 0.099
V9Q	-0.04 ± 0.067

Variant	abundance fitness
V9R	-0.154 ± 0.063
V9S	-0.194 ± 0.091
L10A	-0.284 ± 0.087
L10E	-0.168 ± 0.11
L10G	-0.474 ± 0.11
L10K	-0.065 ± 0.12
L10R	-0.126 ± 0.076
L10S	-0.33 ± 0.078
L10T	-0.068 ± 0.47
L10V	-0.357 ± 0.17
L11A	0.012 ± 0.23
L11C	-0.208 ± 0.17
L11G	0.041 ± 0.064
L11Q	0.054 ± 0.086
L11R	0.049 ± 0.053
L11S	0.008 ± 0.057
L11T	0.027 ± 0.081
L11V	0.031 ± 0.06
L11W	-0.072 ± 0.072
T12A	-0.59 ± 0.3
T12C	-0.39 ± 0.2
T12E	-0.722 ± 0.22
T12H	-0.383 ± 0.2
T12K	-0.347 ± 0.057
T12P	-0.528 ± 0.11

Variant	abundance fitness
T12Q	-0.24 ± 0.32
T12R	-0.437 ± 0.086
T12S	-0.475 ± 0.23
T12V	-0.47 ± 0.083
T12W	-0.721 ± 0.2
T12Y	-0.356 ± 0.18
V13S	-0.234 ± 0.14
R14A	-0.006 ± 0.047
R14C	-0.15 ± 0.09
R14E	0.001 ± 0.054
R14G	-0.092 ± 0.043
R14K	0.089 ± 0.11
R14L	-0.099 ± 0.068
R14M	0.06 ± 0.057
R14N	-0.166 ± 0.34
R14P	-0.312 ± 0.065
R14Q	0.001 ± 0.095
R14S	-0.094 ± 0.084
R14T	-0.052 ± 0.17
R14V	-0.037 ± 0.048
R14W	-0.075 ± 0.06
R14Y	-0.052 ± 0.11
K15A	-0.282 ± 0.13
K15C	-0.342 ± 0.064
K15D	0.06 ± 0.09

Variant	abundance fitness
K15E	0.105 ± 0.059
K15F	-0.136 ± 0.12
K15G	0.318 ± 0.21
K15L	-0.325 ± 0.059
K15M	-0.066 ± 0.18
K15N	0.031 ± 0.11
K15R	0.108 ± 0.15
K15T	0.067 ± 0.045
K15W	-0.126 ± 0.19
K15Y	-0.299 ± 0.099
E16A	-0.185 ± 0.063
E16C	-0.342 ± 0.087
E16G	-0.266 ± 0.069
E16K	-0.071 ± 0.1
E16L	-0.246 ± 0.058
E16N	-0.018 ± 0.054
E16P	-0.196 ± 0.15
E16R	-0.165 ± 0.079
E16S	-0.344 ± 0.33
E16T	-0.13 ± 0.087
E16V	-0.5 ± 0.34
E16Y	-0.421 ± 0.17
G17A	-0.676 ± 0.17
G17I	-0.263 ± 0.16
G17L	-0.606 ± 0.071

Variant	abundance fitness
G17P	-0.89 ± 0.46
G17Q	-0.681 ± 0.11
G17R	-0.665 ± 0.14
G17V	-0.675 ± 0.14
G17W	-0.684 ± 0.26
P18A	-0.058 ± 0.072
P18C	-0.482 ± 0.18
P18H	-0.353 ± 0.12
P18L	-0.352 ± 0.21
P18M	-0.336 ± 0.072
P18R	-0.252 ± 0.11
P18V	-0.149 ± 0.067
P18W	-0.716 ± 0.14
N19A	-0.509 ± 0.097
N19D	0.069 ± 0.046
N19E	-0.222 ± 0.19
N19G	-0.537 ± 0.14
N19H	0.157 ± 0.1
N19L	-0.195 ± 0.073
N19M	0.085 ± 0.14
N19R	-0.777 ± 0.49
N19S	-0.168 ± 0.097
N19T	-0.075 ± 0.071
N19V	-0.54 ± 0.1
N19W	-0.454 ± 0.13

Variant	abundance fitness
R20C	-0.549 ± 0.32
R20D	0.22 ± 0.2
R20E	-0.039 ± 0.076
R20G	-0.171 ± 0.072
R20H	0.199 ± 0.27
R20P	-0.227 ± 0.12
R20S	-0.167 ± 0.049
R20W	-0.271 ± 0.086
R20Y	0.007 ± 0.099
G21A	-0.367 ± 0.083
G21I	-0.787 ± 0.28
G21N	-0.208 ± 0.11
G21Q	-0.614 ± 0.14
G21R	-0.643 ± 0.13
G21S	-0.469 ± 0.11
G21V	-0.763 ± 0.11
G21W	-0.89 ± 0.46
R22A	-0.401 ± 0.13
R22G	-0.565 ± 0.081
R22K	0.007 ± 0.095
R22L	-0.322 ± 0.079
R22M	-0.677 ± 0.2
R22N	-0.459 ± 0.36
R22Q	-0.623 ± 0.13
R22S	-0.513 ± 0.086

Variant	abundance fitness
R22T	-0.438 ± 0.17
R22W	-0.629 ± 0.077
Q23D	0.021 ± 0.28
Q23G	-0.21 ± 0.053
Q23H	0.03 ± 0.14
Q23T	-0.219 ± 0.19
Q23W	-0.574 ± 0.14
F25K	-0.413 ± 0.14
F25M	-0.149 ± 0.066
F25R	-0.412 ± 0.14
F25V	-0.509 ± 0.076
F25W	-0.123 ± 0.084
K26A	-0.001 ± 0.095
K26C	-0.13 ± 0.17
K26G	-0.004 ± 0.056
K26L	-0.318 ± 0.096
K26M	-0.232 ± 0.12
K26R	0.025 ± 0.12
K26S	-0.011 ± 0.11
K26V	-0.266 ± 0.063
C27A	-0.44 ± 0.15
C27E	-0.53 ± 0.38
C27G	-1.19 ± 0.41
C27H	-0.753 ± 0.35
C27L	-0.984 ± 0.19

Variant	abundance fitness
C27M	-0.789 ± 0.25
C27R	-1 ± 0.36
C27T	-0.86 ± 0.25
C27V	-1.09 ± 0.25
N28A	0.075 ± 0.069
N28I	0.137 ± 0.3
N28L	-0.195 ± 0.18
N28R	0.131 ± 0.12
N28S	-0.09 ± 0.047
N28T	-0.043 ± 0.13
N28V	-0.136 ± 0.078
N28W	0.079 ± 0.2
G29A	0.121 ± 0.075
G29D	0 ± 0.12
G29P	-0.571 ± 0.36
G29R	-0.093 ± 0.059
G29T	-0.371 ± 0.22
G29V	-0.074 ± 0.068
G30A	-0.381 ± 0.2
G30L	-0.473 ± 0.14
G30Q	-0.265 ± 0.071
G30S	-0.304 ± 0.069
G30V	-0.574 ± 0.12
G30W	-0.287 ± 0.36
S31A	-0.072 ± 0.073

Variant	abundance fitness
S31C	-0.239 ± 0.076
S31D	0.077 ± 0.094
S31G	-0.071 ± 0.068
S31H	0.092 ± 0.088
S31I	-0.209 ± 0.27
S31K	0.112 ± 0.08
S31L	-0.176 ± 0.073
S31M	-0.13 ± 0.085
S31Q	0.055 ± 0.099
S31R	0.065 ± 0.051
S31T	0.114 ± 0.11
S31W	-0.273 ± 0.11
C32G	-1.07 ± 0.25
C32P	-1.36 ± 0.4
C32R	-0.934 ± 0.26
C32S	-0.33 ± 0.41
C32T	-0.854 ± 0.26
C32V	-0.977 ± 0.25
N33A	-0.12 ± 0.057
N33G	-0.072 ± 0.13
N33L	-0.892 ± 0.37
N33S	-0.057 ± 0.062
N33T	-0.075 ± 0.079
N33V	-0.7 ± 0.11
N33W	-0.572 ± 0.11

Variant	abundance fitness
F34E	-0.626 ± 0.17
F34H	-0.396 ± 0.22
F34K	-0.576 ± 0.15
F34L	-0.703 ± 0.15
F34Q	-0.44 ± 0.3
F34R	-0.374 ± 0.2
F35E	-0.447 ± 0.16
F35K	-0.014 ± 0.11
F35L	-0.444 ± 0.076
F35P	-0.388 ± 0.16
F35Q	-0.241 ± 0.09
F35V	-0.352 ± 0.14
F35W	-0.246 ± 0.11
L36A	0.028 ± 0.045
L36E	-0.013 ± 0.066
L36F	0.063 ± 0.35
L36G	-0.177 ± 0.054
L36H	-0.22 ± 0.17
L36K	0.189 ± 0.081
L36M	0.022 ± 0.078
L36R	0.013 ± 0.058
L36S	0.134 ± 0.17
L36V	-0.255 ± 0.09
L36W	-0.134 ± 0.086
L36Y	-0.265 ± 0.14

Variant	abundance fitness
W37A	-0.477 ± 0.089
W37G	-0.48 ± 0.048
W37K	-0.29 ± 0.13
W37L	-0.52 ± 0.23
W37P	-0.239 ± 0.064
W37R	-0.51 ± 0.085
W37T	-0.483 ± 0.13
W37V	-0.19 ± 0.078
A38D	-0.371 ± 0.21
A38P	-0.659 ± 0.13
A38V	-0.295 ± 0.13
D39C	-0.205 ± 0.14
D39E	-0.105 ± 0.088
D39G	-0.227 ± 0.083
D39L	-0.93 ± 0.15
D39M	-1.03 ± 0.22
D39P	-0.171 ± 0.17
D39Q	-0.63 ± 0.42
D39R	-0.838 ± 0.49

Variants of: B2
Test: as above
Conditions: Homo sapiens

Variant	abundance fitness
E1D	0.242 ± 0.32
E1G	-0.425 ± 0.088
E1R	-0.215 ± 0.35
Q2A	-0.002 ± 0.27
Q2D	0.855 ± 0.26
Q2E	0.108 ± 0.22
Q2F	0.195 ± 0.48
Q2G	-0.187 ± 0.17
Q2H	-0.061 ± 0.13
Q2L	-0.573 ± 0.5
Q2P	-0.874 ± 0.36
Q2R	-0.401 ± 0.17
Q2S	-0.822 ± 0.42
Q2T	-0.614 ± 0.38
Q2V	-0.384 ± 0.37
R3A	-0.574 ± 0.2
R3C	-0.645 ± 0.34
R3E	-0.582 ± 0.38
R3F	0.074 ± 0.12
R3H	-0.408 ± 0.21
R3K	0.226 ± 0.099
R3L	-0.14 ± 0.11

Variant	abundance fitness
R3M	-0.448 ± 0.14
R3P	-0.94 ± 0.36
R3Q	-0.272 ± 0.11
R3S	-0.737 ± 0.2
R3T	-0.778 ± 0.14
R3V	-0.828 ± 0.36
R3W	-0.209 ± 0.26
R3Y	0.294 ± 0.17
V4A	-0.945 ± 0.25
V4C	-0.52 ± 0.33
V4G	-1.05 ± 0.28
V4K	-0.739 ± 0.16
V4L	-0.537 ± 0.098
V4M	-0.716 ± 0.31
V4P	-0.927 ± 0.21
V4Q	-0.145 ± 0.18
V4R	-0.877 ± 0.12
V4T	-1.04 ± 0.23
M5A	-0.587 ± 0.14
M5C	-0.516 ± 0.18
M5E	0.081 ± 0.15
M5G	-0.813 ± 0.092

Variant	abundance fitness
M5I	0.162 ± 0.14
M5K	-0.201 ± 0.39
M5N	-0.512 ± 0.48
M5Q	-0.383 ± 0.21
M5S	-0.344 ± 0.15
M5T	-0.242 ± 0.14
M5V	0.422 ± 0.056
M5W	-0.85 ± 0.17
A6C	-0.048 ± 0.27
A6E	-0.47 ± 0.11
A6G	-0.76 ± 0.14
A6K	-0.73 ± 0.28
A6L	-0.886 ± 0.12
A6M	-0.915 ± 0.3
A6N	-0.44 ± 0.37
A6P	-0.882 ± 0.19
A6Q	-0.975 ± 0.2
A6R	-0.767 ± 0.17
A6S	-0.496 ± 0.26
A6T	-0.685 ± 0.41
A6V	-0.861 ± 0.13
